Experimental data: article PMC10864275, “Binding kinetics drive G protein subtype selectivity at the β1-adrenergic receptor” (Nature Communications, 2024)
Where a chain is given by its changes, count along the chain named. In names and notes the source's numbering stands. Several values for one entry are separate records, joined by “and”; a condition that tells them apart may be missing. Equal entries are not always repeated.

B1: mini-Gs/i R43 with C96A (domain or fragment)
chain: IEKQLQKDKQVYRATHRLLLLGADNSGKSTIVKQMRIYHTSGIFETKFQVDKVNFHMFDVGGQRDERRKWIQAFNDVTAIIFVVDSSDYNRLQEALNDFKSIWNNRWLRTISVILFLNKQDLLAEKVLAGKSKIEDYFPEFARYTTPEDATPEPGEDPRVTRAKYFIRDEFLRISTASGDGRHYCYPHFTCAVDTENARRIFNDVTDIIIKMNLRDCGLF
B2: mini-Gs/q R70 (domain or fragment)
chain: B1 chain with A73C, V205C, T206K, I210L, K211Q, D216E, C217Y, G218N, F220V
B3: mini-Gs/i R43 C96A (chimera of mini-Gs with the receptor-interacting residues of the α5 helix replaced by Gi1 residues) (domain or fragment)
chain: B1 chain with Y38L
B4: mini-Gs/q R70 (chimera of mini-Gs with the receptor-interacting residues of the α5 helix replaced by Gq residues) (domain or fragment)
chain: GIEKQLQKDKQVYRATHRLLLLGADNSGKSTIVKQMRILHGGSGGSGGTSGIFETKFQVDKVNFHMFDVGGQRDERRKWIQCFNDVTAIIFVVDSSDYNRLQEALNDFKSIWNNRWLRTISVILFLNKQDLLAEKVLAGKSKIEDYFPEFARYTTPEDATPEPGEDPRVTRAKYFIRDEFLRISTASGDGRHYCYPHFTCAVDTENARRIFNDCKDIILQMNLREYNLV

How the values were obtained:
Conditions in all cases: both partners purified
[1] = biological target: T1, avi-β1AR-E (turkey β1-adrenergic receptor, β1AR-E construct with N-terminal biotinylated avi-tag) (turkey, UniProt P07700 1-367, Δ3-32 | Δ244-271 | C358A^8.59 | C116L^3.27 | R68S^1.59 | F327A^7.37 | …, biotin on the avi-tag); experiment: BLI; biotinylated avi-β1AR in LMNG on streptavidin biosensors, mini-G in solution; 500 μM isoprenaline; 20 mM TrisHCl pH 8.0, 150 mM NaCl, 15 mM MgCl2, 0.02% LMNG, 0.1% BSA; 25 °C; single point measurements, monophasic 1:1 local fit, n = 3
T1 construct: turkey β1-adrenergic receptor; N-terminus truncated (Δ3-32), C-terminus truncated (Δ368-483), IL3 truncated (Δ244-271); as β1AR-W (β1AR-MetΔ5) but with E130 as in the wild type; source: Sf9 (baculovirus), purified in LMNG (NiNTA, SEC), biotinylated with GST-BirA, repurified by SEC; not shown: avi-tag, N-terminal, kept

[2] = biological target: T2, avi-β1AR-E (turkey β1-adrenergic receptor, minimally thermostabilised construct with E130 restored, … (turkey, UniProt P07700 1-367, Δ3-32 | Δ244-271 | C358A^8.59 | C116L^3.27 | R68S^1.59 | F327A^7.37 | …, biotin on the avi-tag)); experiment: BLI; biotinylated avi-tagged receptor in LMNG immobilised on streptavidin biosensors; 500 μM isoprenaline; mini-G in solution at a single concentration (0.125-4 μM); 20 mM TrisHCl pH 8.0, 150 mM NaCl, 15 mM MgCl2, 0.02% LMNG, 0.1% BSA; 25 °C; 1:1 monophasic local partial fit; one of n = 3 tips
T2 construct: turkey β1-adrenergic receptor; N-terminus truncated (Δ3-32), C-terminus truncated (Δ368-483), IL3 truncated (Δ244-271); as β1AR-W (β1AR-MetΔ5) but with E130W reverted to E130; source: Sf9 (baculovirus), purified in LMNG (NiNTA, SEC), biotinylated with GST-BirA and repurified by SEC; not shown: avi-tag, N-terminal, kept

[3] = biological target: T3, avi-β1AR-W (turkey β1-adrenergic receptor β1AR-MetΔ5, thermostabilised with E130W, N-terminal biotinylated … (turkey, UniProt P07700 1-367, Δ3-32 | Δ244-271 | C358A^8.59 | C116L^3.27 | R68S^1.59 | E130W^3.41 | …, biotin on the avi-tag)); experiment: as above
T3 construct: turkey β1-adrenergic receptor; N-terminus truncated (Δ3-32), C-terminus truncated (Δ368-483), IL3 truncated (Δ244-271); source: Sf9 (baculovirus), purified in LMNG (NiNTA, SEC), biotinylated with GST-BirA and repurified by SEC; not shown: avi-tag, N-terminal, kept
T3 sequence (P07700 other isoform, or with tags, fused parts or gaps with the stated changes): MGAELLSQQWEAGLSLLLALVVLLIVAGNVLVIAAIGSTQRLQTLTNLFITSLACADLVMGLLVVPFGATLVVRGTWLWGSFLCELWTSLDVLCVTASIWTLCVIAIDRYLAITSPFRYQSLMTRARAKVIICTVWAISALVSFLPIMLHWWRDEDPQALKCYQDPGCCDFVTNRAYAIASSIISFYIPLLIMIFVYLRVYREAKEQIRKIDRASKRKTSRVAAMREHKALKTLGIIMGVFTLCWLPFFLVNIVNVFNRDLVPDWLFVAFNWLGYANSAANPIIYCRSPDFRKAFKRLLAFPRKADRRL

T1 sequence (P07700 other isoform, or with tags, fused parts or gaps with the stated changes): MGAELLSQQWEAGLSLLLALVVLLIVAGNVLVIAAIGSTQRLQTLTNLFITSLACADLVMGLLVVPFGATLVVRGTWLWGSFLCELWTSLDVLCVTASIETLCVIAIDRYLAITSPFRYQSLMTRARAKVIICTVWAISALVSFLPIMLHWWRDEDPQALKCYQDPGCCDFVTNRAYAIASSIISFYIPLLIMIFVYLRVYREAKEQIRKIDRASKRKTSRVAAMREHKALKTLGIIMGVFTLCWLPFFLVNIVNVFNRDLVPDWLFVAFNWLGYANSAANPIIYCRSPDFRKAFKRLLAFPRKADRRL

Row | Binder | Kd [1] [nM] | fold reduction of kon against mini-Gs [1] [fold] | Kd [2] | koff [2] | kon [2] | Kd [3] | koff [3] | kon [3]
1 | B1 | 1090 | 40 | – | – | – | – | – | –
2 | B2 | 240 | – | – | – | – | – | – | –
3 | B3 | – | – | 1070 nM and 1180 nM and 1030 nM | 0.00392 s⁻¹ and 0.00399 s⁻¹ (2×) | 3670 M⁻¹ s⁻¹ and 3370 M⁻¹ s⁻¹ and 3860 M⁻¹ s⁻¹ | 3050 nM and 2400 nM and 2150 nM | 0.0063 s⁻¹ and 0.00605 s⁻¹ and 0.00634 s⁻¹ | 2070 M⁻¹ s⁻¹ and 2520 M⁻¹ s⁻¹ and 2950 M⁻¹ s⁻¹
4 | B4 | – | – | 241 nM and 242 nM and 244 nM | 0.00344 s⁻¹ (2×) and 0.0034 s⁻¹ | 14300 M⁻¹ s⁻¹ and 14200 M⁻¹ s⁻¹ and 14000 M⁻¹ s⁻¹ | 529 nM and 541 nM and 533 nM | 0.00658 s⁻¹ and 0.00672 s⁻¹ and 0.00679 s⁻¹ | 12400 M⁻¹ s⁻¹ (2×) and 12800 M⁻¹ s⁻¹
